IntAct's records for PubMed 19172740

B1: EKC/KEOPS complex subunit BUD32 (Saccharomyces cerevisiae), P53323 (parent)
chain: MTQEFIDKVSSYLTPDVDIAPISQGAEAIVFTTTTHPYLPRAKDSHQKYIIKYRPPKRYRHPQIDQALTKHRTLNESRLLAKLYLIPGLCVPQLIACDPYNGFIWLEFLGEDLPGGHGFSNLKNFLWMHDQDPYSDLVATTLRKVGRQIGLLHWNDYCHGDLTSSNIVLVRDGARWTPHLIDFGLGSVSNLVEDKGVDLYVLERAILSTHSKHAEKYNAWIMEGFEEVYREQGAKGAKKLKEVTKRFEEVRLRGRKRSMLG
partner: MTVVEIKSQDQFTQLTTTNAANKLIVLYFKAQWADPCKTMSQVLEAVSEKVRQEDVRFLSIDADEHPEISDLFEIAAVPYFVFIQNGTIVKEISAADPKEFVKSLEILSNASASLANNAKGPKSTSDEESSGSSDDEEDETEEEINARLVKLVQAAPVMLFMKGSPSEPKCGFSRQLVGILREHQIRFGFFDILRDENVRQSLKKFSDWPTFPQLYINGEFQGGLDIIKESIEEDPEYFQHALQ
B2: tRNA N6-adenosine threonylcarbamoyltransferase (Saccharomyces cerevisiae), P36132 (parent)
chain: MVNLNTIPPKNGRDYYIALGLEGSANKLGVGIVKHPLLPKHANSDLSYDCEAEMLSNIRDTYVTPPGEGFLPRDTARHHRNWCIRLIKQALAEADIKSPTLDIDVICFTKGPGMGAPLHSVVIAARTCSLLWDVPLVGVNHCIGHIEMGREITKAQNPVVLYVSGGNTQVIAYSEKRYRIFGETLDIAIGNCLDRFARTLKIPNEPSPGYNIEQLAKKAPHKENLVELPYTVKGMDLSMSGILASIDLLAKDLFKGNKKNKILFDKTTGEQKVTVEDLCYSLQENLFAMLVEITERAMAHVNSNQVLIVGGVGCNVRLQEMMAQMCKDRANGQVHATDNRFCIDNGVMIAQAGLLEYRMGGIVKDFSETVVTQKFRTDEVYAAWRD
B3: EKC/KEOPS complex subunit BUD32 (Saccharomyces cerevisiae), P53323 (parent)
chain: B1 chain
partner: B2 chain

Variants of: B1
Conditions: with glrx4_yeast GRX4, P32642

| Variant | effect of a mutation on the interaction |
| --- | --- |
| D161A | disrupting interaction |

Variants of: B2
Conditions: with bud32_yeast BUD32, P53323

| Variant | effect of a mutation on the interaction |
| --- | --- |
| E292R | disrupting interaction |
| E295R | disrupting interaction |

Variants of: B2
Conditions: with bud32_yeast BUD32, P53323
Remark: another data set of the same source

| Variant | effect of a mutation on the interaction |
| --- | --- |
| D236R | decreasing interaction |

Variants of: B3
Conditions: with kae1_yeast KAE1, P36132

| Variant | effect of a mutation on the interaction |
| --- | --- |
| R72E | decreasing interaction |

Variants of: B3
Conditions: with kae1_yeast KAE1, P36132
Remark: another data set of the same source

| Variant | effect of a mutation on the interaction |
| --- | --- |
| R60E | disrupting interaction |

Variants of: B3
Conditions: with kae1_yeast KAE1, P36132
Remark: another data set of the same source

| Variant | effect of a mutation on the interaction |
| --- | --- |
| Y59E | disrupting interaction |

Variants of: B3
Conditions: with kae1_yeast KAE1, P36132
Remark: another data set of the same source

| Variant | effect of a mutation on the interaction |
| --- | --- |
| K57E | disrupting interaction |
